Results taken from paper PMC6499331, “Transcriptional gene silencing requires dedicated interaction between HP1 protein Chp2 and chromatin remodeler Mit1” (Genes & Development, 2019).

T1: StrepSumo-tagged Mit1CII I11R (S. pombe, UniProt Q9P793 1-81, I11R)
T1 construct: Mit1, S. pombe, CII, residues 1-81, I11R; also called Mit1I11R; Mit1 I11R; source: E. coli BL21(DE3) or Rosetta (DE3), purified (Streptactin, SEC); not shown: Strep-SUMO, N-terminal, kept
T1 sequence (looked up): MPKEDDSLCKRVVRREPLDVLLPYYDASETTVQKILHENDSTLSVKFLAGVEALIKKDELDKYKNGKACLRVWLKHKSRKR

T2: StrepSumo-tagged Mit1CII with engineered PkVvL motif instead of CkIvV (S. pombe, UniProt Q9P793 1-81, PkVvL motif instead of CkIvV)
T2 construct: Mit1, S. pombe, CII, residues 1-81; residues 9-13 CKIVV changed to PKVVL; also called Mit1 PxVxL substitution mutant; PxVxL substitution; source: E. coli BL21(DE3) or Rosetta (DE3), purified (Streptactin, SEC); not shown: Strep-SUMO, N-terminal, kept
T2 sequence (looked up): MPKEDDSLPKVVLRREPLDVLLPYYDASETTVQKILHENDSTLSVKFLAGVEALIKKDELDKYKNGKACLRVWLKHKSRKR

T3: StrepSumo-tagged Mit1CII wild type (S. pombe, UniProt Q9P793 1-81)
T3 construct: The Strep-SUMO tag was left on for stabilization; also called wild-type Mit1CII; source: E. coli BL21(DE3) or Rosetta (DE3), purified (Streptactin, SEC); not shown: Strep-SUMO, N-terminal, kept
T3 sequence (looked up): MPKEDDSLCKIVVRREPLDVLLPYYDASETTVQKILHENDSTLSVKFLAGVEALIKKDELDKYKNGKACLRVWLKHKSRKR

T4: Mit1(1-81), Chp2 interaction interface (CII), tag removed (S. pombe, UniProt Q9P793 1-81)
T4 construct: Mit1, S. pombe, residues 1-81 (CkIvV motif 9-13, linker 15-31, CD-like domain); Density is seen for residues 8-81; also called Mit1CII; source: E. coli BL21(DE3) or Rosetta (DE3), coexpressed with Chp2CSD, purified as a complex (Streptactin, Ulp1, SEC); not shown: Strep-SUMO, N-terminal, cleaved
T4 sequence (looked up): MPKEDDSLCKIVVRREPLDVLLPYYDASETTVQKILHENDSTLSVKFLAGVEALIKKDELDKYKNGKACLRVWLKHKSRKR


Assays:
[1] = target: T1, StrepSumo-tagged Mit1CII I11R; test: ITC; 25°C; 400 mM NaCl, 50 mM Tris-HCl pH 7.5, 5 mM β-mercaptoethanol; Chp2 or Swi6 at 100 to 500 µM injected into the cell holding StrepSumo-tagged Mit1 constructs at 5 to 50 µM; VP-ITC or Nano ITC (Mit1CIIΔCDL); conditions: both partners purified
[2] = target: T2, StrepSumo-tagged Mit1CII with …; test: as above; conditions: both partners purified
[3] = target: T3, StrepSumo-tagged Mit1CII wild type; test: as above; conditions: both partners purified
[4] = target: StrepSumo-tagged Mit1CIIΔCDL (S. pombe); test: as above
[5] = target: the molecule itself; test: crystal structure; Mit1(1-81)–Chp2(316-380), coexpressed in E. coli, purified as a complex; hanging drops at 18°C, 2.4 M sodium malonate pH 7, 3% 1,6-hexanediol; 1.6 Å
[6] = target: T4, Mit1(1-81), Chp2 interaction interface …; test: as above; conditions: both partners purified

| Binder | Kd [1] [µM] | Kd [2] [µM] | Kd [3] [µM] | Kd [4] [µM] | stoichiometry N [5] | stoichiometry N [6] [Chp2CSD chains per Mit1] |
| --- | --- | --- | --- | --- | --- | --- |
| Chp2CSD (expressed alone, tag removed, for ITC) (domain or fragment, S. pombe, Chp2, S. pombe, chromoshadow domain (CSD); limits 316-380 are printed for the crystallised CSD construct, not for the ITC sample; source: E. coli BL21(DE3) or Rosetta (DE3), purified (Streptactin, Ulp1, MonoS); not shown: Strep-SUMO, N-terminal, cleaved) KPPFQKKSWEDLVDCVKTVQQLDNGKLIAKIKWKNGYVSTHDNIIIHQKCPLKIIEYYEAHIKFT | 21.5 | 0.0082 | 0.0026 | 2.2 | – | – |
| Chp2CSD, Chp2(316-380), untagged, coexpressed with Mit1 fragments (domain or fragment, S. pombe, UniProt O42934 316-380, looked up, Chp2, S. pombe, chromoshadow domain, residues 316-380; Cloned without tag into pACE2 for coexpression; Limits 316-380 are printed for the crystallised complex; also called chromo shadow domain of Chp2; Chp2CSD2; source: E. coli BL21(DE3) or Rosetta (DE3), coexpressed with Mit1 fragments, purified as a complex) KPPFQKKSWEDLVDCVKTVQQLDNGKLIAKIKWKNGYVSTHDNIIIHQKCPLKIIEYYEAHIKFT | – | – | – | – | 2 | 2 |
| Swi6CSD (domain or fragment, S. pombe, UniProt P40381 267-328, looked up, Swi6, HP1 protein, S. pombe, chromoshadow domain (CSD); A crystal structure of the free Swi6CSD dimer (PDB 1E0B) is cited; also called Swi6 chromoshadow domain; source: E. coli BL21(DE3) or Rosetta (DE3), purified (Streptactin, on-column Ulp1 cleavage, SEC); not shown: Strep-SUMO, N-terminal, cleaved) DSWEDLVSSIDTIERKDDGTLEIYLTWKNGAISHHPSTITNKKCPQKMLQFYESHLTFRENE | – | 15 | 28 | – | – | – |
